± gives the standard error. For some assays here: Variants at the floor of the assay were thinned out.
B1: glmS ribozyme (parent)
chain: AUAAAAGCGCCAGAACUACAGAAAUGUAGUUGACGAGGAGGAGGUUUAUCGAAUUUUCGGCGGAUGCCUCCAAA

Assays:
Conditions in all cases: with glucosamine-6-phosphate
glucosamine-6-phosphate [1] = variants of: B1; assay: kcat; higher = faster cleavage; RNA array
Outline: (§1)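 The measurements used barcoded ribozyme variants on sequenced MiSeq chips, transcribed in situ by E. coli RNA polymerase and tracked at 37 °C with a hybridised Cy3 probe. Glucosamine-6-phosphate, 40 μM to 10 mM in HEPES/KCl/Mg(OAc)2 buffer, was flowed in while tiles were imaged over ~14 h. Baseline-normalised signals, also normalised to non-cleaving reference variants, gave per-tile medians that were fit to one- or two-exponential decays for kobs. kcat and KM resulted from weighted Michaelis–Menten fits across concentrations.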

glucosamine-6-phosphate [2] = variants of: B1; assay: self-cleavage kobs at 40 uM GlcN6P; higher = faster cleavage; RNA array
Outline: as §1

glucosamine-6-phosphate [3] = variants of: B1; assay: self-cleavage kobs at 160 uM GlcN6P; higher = faster cleavage; RNA array
Outline: as §1

glucosamine-6-phosphate [4] = variants of: B1; assay: self-cleavage kobs at 640 uM GlcN6P; higher = faster cleavage; RNA array
Outline: as §1

glucosamine-6-phosphate [5] = variants of: B1; assay: self-cleavage kobs at 2500 uM GlcN6P; higher = faster cleavage; RNA array
Outline: as §1

glucosamine-6-phosphate [6] = variants of: B1; assay: self-cleavage kobs at 10000 uM GlcN6P; higher = faster cleavage; RNA array
Outline: as §1

glucosamine-6-phosphate [7] = variants of: B1; assay: KM; higher = weaker cofactor use; RNA array
Outline: as §1

Variant | kcat (glucosamine-6-phosphate [1]) [s⁻¹] | self-cleavage kobs at 40 uM GlcN6P (glucosamine-6-phosphate [2]) [s⁻¹] | self-cleavage kobs at 160 uM GlcN6P (glucosamine-6-phosphate [3]) [s⁻¹] | self-cleavage kobs at 640 uM GlcN6P (glucosamine-6-phosphate [4]) [s⁻¹] | self-cleavage kobs at 2500 uM GlcN6P (glucosamine-6-phosphate [5]) [s⁻¹] | self-cleavage kobs at 10000 uM GlcN6P (glucosamine-6-phosphate [6]) [s⁻¹] | KM (glucosamine-6-phosphate [7]) [µM]
U31C A64G | 0.00541 ± 0.0022 | 7.83e-05 ± 1.1e-05 | 0.000159 ± 2.1e-05 | 0.00109 ± 0.00013 | 0.00224 ± 0.00024 | 0.00363 ± 0.00047 | 
G41A C70G | 0.000368 ± 0.00014 | 4.43e-05 ± 8e-06 | 6.45e-05 ± 1.1e-05 | 0.000156 ± 1.6e-05 | 0.000332 ± 4e-05 |  | 
C10G G59A | < 1e-05 | < 1e-05 | < 1e-05 |  |  |  | 
A12U U56A U65G | 0.00677 ± 0.0022 | 6.29e-05 ± 2e-05 | 0.00018 ± 4e-05 | 0.000445 ± 0.00012 | 0.00177 ± 0.00048 | 0.00413 ± 0.00071 | 6820 ± 3000
G29C U57A | 4.62e-05 ± 8e-06 |  |  |  |  | 3.78e-05 ± 1.1e-05 | 
G41A A48U | 4.08e-05 ± 6.1e-06 | < 1e-05 | < 1e-05 |  | 3.76e-05 ± 1.1e-05 | 3.63e-05 ± 1e-05 | 
A36U U57A G66C | < 1e-05 |  |  |  |  |  | 
A39G C50A | 3.27e-05 ± 5.7e-06 |  |  |  |  |  | 
A42U A52G | 1.76e-05 ± 2.4e-06 |  | < 1e-05 |  |  | 1.62e-05 ± 7.9e-06 | 
G63A C71A | < 1e-05 |  |  |  |  |  | 
G59U C71G | 1.13e-05 ± 1.7e-07 | < 1e-05 | < 1e-05 |  |  |  | 817 ± 71
C50G G60A | 4.61e-05 ± 2.1e-05 |  | 7.6e-05 ± 1.9e-05 |  | 4.5e-05 ± 1.8e-05 |  | 
C50A C70U | 3.03e-05 ± 6.5e-06 |  |  | 2.82e-05 ± 9.4e-06 | 3.95e-05 ± 6.5e-06 | 1.9e-05 ± 7e-06 | 
U31A C68U | 0.00143 ± 0.00043 |  | 6.73e-05 ± 1.4e-05 | 0.000477 ± 9.5e-05 | 0.000776 ± 0.00018 | 0.00105 ± 0.00019 | 2740 ± 1200
U46A U55G | 0.0019 ± 0.00044 | 5.8e-05 ± 7.5e-06 | 0.000169 ± 2.3e-05 | 0.000893 ± 0.00011 | 0.001 ± 0.00022 | 0.00169 ± 0.00022 | 1350 ± 440
A12U C71U | 0.0948 ± 0.017 | 0.00207 ± 0.00018 | 0.00891 ± 0.0017 | 0.0214 ± 0.0049 | 0.0611 ± 0.02 | 0.0826 ± 0.025 | 1790 ± 350
G13U U57C | 4.31e-05 ± 6.8e-06 |  |  |  | 3.41e-05 ± 1.3e-05 | 3.63e-05 ± 1.8e-05 | 

Source: the supplement of paper PMC7125110
